Data on 3 substances can be found in US20040005550A1, “Methods and compositions useful for targeting activated vitronectin receptor alphavbeta3” (The Scripps Research Institute, priority 1998, published 2004).

In test [1] the target is T1, αvβ3 expressed in CHO cells (Homo sapiens, UniProt P05106+P06756).
T1 construct: cDNAs encoding full-length human αv and β3 were subcloned into pcDNA3 and pCDM8; expressed in transfected cells
The test is described as follows: Flow cytometry ligand binding to αvβ3-CHO cells. The note with it: for Bmax: arbitrary fluorescence units. The procedure:
Binding of aPB, WOW-1 Fab and FITC-fibrinogen to cells was assessed by flow cytometry. Typically, cells were cultured overnight in low serum medium (e.g., 0.5% fetal bovine serum), resuspended in incubation buffer at 1-1.5×10^7 cells/ml, and 4-6×10^5 cells were incubated with one of these ligands for 30 min at room temperature in a final volume of 50 μl. […] In some experiments, ligand binding and αvβ3 expression were measured simultaneously by incubation of cells with ligands in the presence of biotin-SSA6 (7 μg/ml), a non-function-blocking anti-β3 monoclonal antibody (Abrams, C., Deng, J., Steiner, B., and Shattil, S. J. (1994) J. Biol. Chem. 269, 18781-18788). After 30 min at room temperature, cells were washed and incubated with phycoerythrin-streptavidin (1:25 final dilution; Molecular Probes) for 20 min on ice. In the case of WOW-1 Fab, an Alexa-conjugated anti-(His)6 monoclonal antibody (Accurate Chemical and Scientific Corp., Westbury, N.Y.) was added at this stage (50 μg/ml). Cells were washed and resuspended in 0.5 ml incubation buffer containing 2 μg/ml propidium iodide (Sigma, St. Louis, Mo.). Ligand binding (FL1 channel) was analyzed immediately on the gated subset of live cells (propidium iodide-negative, FL3) that was strongly positive for αvβ3 expression (FL2). Binding isotherms were subjected to non-linear, least squares regression analysis using an equation for one-site binding (Prism 2.0 software; GraphPad Software, San Diego, Calif.). Two-tailed P values for paired samples were obtained by Student's t test.
In order to document and study the significance of affinity modulation of αvβ3, a monovalent reporter ligand was developed analogous to the activation-dependent anti-αIIbβ3 antibody, PAC1 Fab. Preliminary binding studies were conducted with the new antibody, designated WOW-1 Fab, using purified integrins in the presence of 50 μM MnCl2, which activates integrins by a direct effect on the extracellular domain (Bazzoni, G., and Hemler, M. E. (1998) Trends Biochem. Sci. 23, 30-34). […] To determine if WOW-1 Fab reacted preferentially with activated αvβ3 in cells, Fab binding was compared with that of multivalent penton base using CHO cells stably-transfected with human αvβ3 (αvβ3-CHO cells).
Background: In flow cytometry, cells or beads pass a laser one at a time.

A further test has as its system αvβ3-CHO cells. As to the kind of experiment: Cell adhesion assay on immobilized penton base. It is filed as cell-based. The procedure:
Immulon-2 microtiter wells (Dynex Laboratories, Chantilly, Va.) were coated with unlabeled penton base (1-100 ng/well) overnight at 4° C., followed by blocking with 20 mg/ml BSA. CHO cells stably expressing αvβ3 were labeled with BCECF-AM (Molecular Probes, Eugene, Oreg.), and cell adhesion to the immobilized penton base was quantitated by cytofluorimetry at 485/530 nm (Hato, T., Pampori, N., and Shattil, S. J. (1998) J. Cell Biol. 141(7), 1685-1695).
In order to determine whether changes in receptor affinity affect the adhesive function of αvβ3, the adhesion of αvβ3-CHO cells to immobilized penton base was quantitated. Adhesion was dependent on the coating concentration of penton base and was half-maximal at 30-40 ng/well (FIG. 7). Activation of αvβ3 by AP5 led to a 7-fold leftward shift in the dose-response curve such that half-maximal adhesion now occurred at approximately 5 ng of penton base/well. Treatment of the cells with 1 mM MnCl2 caused an even further shift in the dose-response curve, either because it induced a more profound effect on αvβ3 or it activated additional αv integrins (FIG. 7). […] Thus, affinity modulation of αvβ3 promotes both cell adhesion and post-ligand binding responses, such as cell spreading.

Test [2] deals with resting or thrombin-stimulated human platelets. As to the kind of experiment: Flow cytometry ligand binding to platelets.

T1 sequence (P06756 31-889 limits assumed): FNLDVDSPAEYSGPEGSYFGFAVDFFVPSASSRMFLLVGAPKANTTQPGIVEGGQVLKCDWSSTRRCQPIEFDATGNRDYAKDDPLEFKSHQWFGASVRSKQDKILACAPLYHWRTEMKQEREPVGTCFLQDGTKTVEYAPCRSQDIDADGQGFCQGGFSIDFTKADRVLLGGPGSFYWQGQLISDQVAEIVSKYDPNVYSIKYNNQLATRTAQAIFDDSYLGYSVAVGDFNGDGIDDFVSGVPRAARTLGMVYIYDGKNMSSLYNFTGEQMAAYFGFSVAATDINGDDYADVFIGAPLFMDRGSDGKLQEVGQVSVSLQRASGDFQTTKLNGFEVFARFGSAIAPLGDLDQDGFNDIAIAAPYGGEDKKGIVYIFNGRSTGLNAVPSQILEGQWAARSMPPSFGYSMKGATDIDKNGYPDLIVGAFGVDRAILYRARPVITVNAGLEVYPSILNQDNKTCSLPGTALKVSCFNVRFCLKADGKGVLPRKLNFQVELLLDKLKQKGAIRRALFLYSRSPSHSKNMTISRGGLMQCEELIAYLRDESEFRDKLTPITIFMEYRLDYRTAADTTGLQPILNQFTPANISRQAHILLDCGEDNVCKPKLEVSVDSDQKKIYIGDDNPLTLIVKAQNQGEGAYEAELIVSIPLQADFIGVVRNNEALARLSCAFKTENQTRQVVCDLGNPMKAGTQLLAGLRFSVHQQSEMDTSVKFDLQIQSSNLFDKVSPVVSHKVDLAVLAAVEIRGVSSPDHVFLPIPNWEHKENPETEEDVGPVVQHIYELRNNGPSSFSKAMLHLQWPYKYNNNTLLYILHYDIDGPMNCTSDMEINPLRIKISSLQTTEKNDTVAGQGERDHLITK
T1 sequence (P06756 891-1048 partner limits assumed): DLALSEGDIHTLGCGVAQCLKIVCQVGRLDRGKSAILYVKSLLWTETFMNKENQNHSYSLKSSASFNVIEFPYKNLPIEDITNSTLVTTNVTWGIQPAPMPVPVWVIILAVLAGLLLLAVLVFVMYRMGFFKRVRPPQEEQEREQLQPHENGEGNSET
T1 sequence (P05106 27-788): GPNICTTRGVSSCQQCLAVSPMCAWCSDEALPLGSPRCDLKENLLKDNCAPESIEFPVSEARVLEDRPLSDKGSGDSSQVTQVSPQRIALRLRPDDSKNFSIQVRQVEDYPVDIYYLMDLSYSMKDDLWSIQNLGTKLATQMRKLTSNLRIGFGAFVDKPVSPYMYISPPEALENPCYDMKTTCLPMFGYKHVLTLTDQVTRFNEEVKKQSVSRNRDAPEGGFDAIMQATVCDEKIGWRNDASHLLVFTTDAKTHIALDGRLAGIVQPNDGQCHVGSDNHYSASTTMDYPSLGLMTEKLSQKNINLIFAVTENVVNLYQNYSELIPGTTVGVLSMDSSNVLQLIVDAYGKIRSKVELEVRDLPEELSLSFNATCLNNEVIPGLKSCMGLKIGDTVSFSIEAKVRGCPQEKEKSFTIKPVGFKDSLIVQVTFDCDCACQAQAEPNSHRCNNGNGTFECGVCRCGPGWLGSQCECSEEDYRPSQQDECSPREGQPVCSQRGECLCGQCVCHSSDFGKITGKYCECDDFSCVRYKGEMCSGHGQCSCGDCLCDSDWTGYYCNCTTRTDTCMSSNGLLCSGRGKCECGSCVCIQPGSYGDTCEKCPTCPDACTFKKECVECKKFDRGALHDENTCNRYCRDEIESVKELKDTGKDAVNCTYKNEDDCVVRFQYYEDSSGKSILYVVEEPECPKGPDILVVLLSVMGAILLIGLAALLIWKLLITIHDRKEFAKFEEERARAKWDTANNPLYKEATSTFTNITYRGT

For the substance “Fibrinogen: Purified human fibrinogen labeled with FITC”, the results for the Bmax in test [1] (Activating antibody AP5) and in test [1] (No Treatment) were 77 ± 6 units and 126 ± 74 units, respectively. Also, the “affinity/avidity of αvβ3 for ligand, fold lower than that for aPB” value in test [1] (unstimulated αvβ3-CHO cells) was “approximately 15 fold”.
“Penton Base: Recombinant multivalent penton base coat protein from adenovirus type 2, baculovirus-expressed”: the Bmax in test [1] (Activating antibody AP5) is on record as 69 ± 5 units; in test [1] (No Treatment), 80 ± 4 units. For the same substance, in the test on αvβ3-CHO cells (no additive, 90 min at 37° C.), the “coating concentration at half-maximal adhesion” value is 30-40 ng/well. The “coating amount at half-maximal adhesion” value with αvβ3-CHO cells (αvβ3 activated by AP5) is recorded as “approximately 5 ng of penton base/well”.
“aPB: Penton base conjugated to Alexa-488”: in test [1] (AP5-treated αvβ3-CHO cells, 75 nM aPB), the “aPB binding on a per receptor basis (mfi of aPB binding divided by mfi of SSA6 binding)” value came to 0.034±0.002. Also, the binding to platelets entry in test [2] was “neither aPB nor WOW-1 Fab bound detectably”.
